Four molecules from PMC12139101, “DNA G-quadruplex structures act as functional elements in α- and β-globin enhancers” can be followed below.

The target in data set [1] is T1, POLR2G (human, UniProt P62487 1-172). Nature of the data set: ELISA; apparent Kd; 100 mM K+; ELISA: oligos folded in Tris-HCl pH 7.4, 100 mM KCl; ELISA buffer 100 mM KCl, 50 mM KH2PO4 pH 7.4, 3% BSA block, 1 h (room temperature stated for coating and bl).
Data set [2] addresses T1, POLR2G. Nature of the data set: ELISA; no detectable binding, up to 200 nM; 100 mM K+; ELISA: oligos folded in Tris-HCl pH 7.4, 100 mM KCl; ELISA buffer 100 mM KCl, 50 mM KH2PO4 pH 7.4, 3% BSA block, 1 h (room temperature stated for coating and bl).

For CCAGAAGCGGGGGTGGGGCACTGACCCCGACAGGGGCCT (structured_DNA) [HS2_G4_WT (bWT)], the Kd in the data set with POLR2G [1] is 48.3 nM.

With CCATAATGCCAAGCTTGAGCACTGATTCCGACACTAGACCT (ssDNA) [HS2_G4_bMut], in the data set with POLR2G [2], the binding result is “no binding”.

TGGGGGTGGAGGTGGGACAAGGGAAAGGGGTGA (structured_DNA) [HS-40_G4_aWT]: the Kd in the data set with POLR2G [1] turned out to be 52.8 nM.

As for TGTGTGTGGATGTGTGACAAGTGAAATGTGTGA (ssDNA) [HS-40_G4_aMut], the binding result in the data set with POLR2G [2] is on record as “no binding”.
